{
  "source": "paper PMC4428439",
  "about": "“Anti-adaptors use distinct modes of binding to inhibit the RssB-dependent turnover of RpoS (σ^S) by ClpXP” (Frontiers in Molecular Biosciences, 2015)",
  "binders": {"B1": {"name": "IraP with a C-terminal His10-tag, purified (natural protein, E. coli, UniProt P0AAN9 1-86, looked up)", "chain": "MKNLIAELLFKLAQKEEESKELCAQVEALEIIVTAMLRNMAQNDQQRLIDQVEGALYEVKPDASIPDDDTELLRDYVKKLLKHPRQ", "notes": "IraP, anti-adaptor induced by phosphate starvation, E. coli; also called His10-tagged IraP; source: E. coli, overexpressed, purified (essentially as Bougdour et al., 2008); not shown: His10, C-terminal, kept"}, "B2": {"name": "RssB, full-length, untagged, purified (natural protein, E. coli, UniProt P0AEV1 1-337, looked up)", "chain": "MTQPLVGKQILIVEDEQVFRSLLDSWFSSLGATTVLAADGVDALELLGGFTPDLMICDIAMPRMNGLKLLEHIRNRGDQTPVLVISATENMADIAKALRLGVEDVLLKPVKDLNRLREMVFACLYPSMFNSRVEEEERLFRDWDAMVDNPAAAAKLLQELQPPVQQVISHCRVNYRQLVAADKPGLVLDIAALSENDLAFYCLDVTRAGHNGVLAALLLRALFNGLLQEQLAHQNQRLPELGALLKQVNHLLRQANLPGQFPLLVGYYHRELKNLILVSAGLNATLNTGEHQVQISNGVPLGTLGNAYLNQLSQRCDAWQCQIWGTGGRLRLMLSAE", "notes": "RssB (SprE), adaptor protein of ClpXP, E. coli; residues 1-337 by the printed domain limits; Monomeric and dimeric RssB were separated by preparative SEC; degradation assays used monomeric RssB; also called SprE; full-length RssB; source: E. coli, Ub-fusion system, purified (IMAC, preparative SEC)"}, "B3": {"name": "His10-tagged IraD (natural protein, E. coli, UniProt P39375 1-130, looked up)", "chain": "MMRQSLQAVLPEISGNKTSSLRKSVCSDLLTLFNSPHSALPSLLVSGMPEWQVHNPSDKHLQSWYCRQLRSALLFHEPRIAALQVNLKEAYCHTLAISLEIMLYHDDEPLTFDLVWDNGGWRSATLENVS", "notes": "IraD, anti-adaptor induced by DNA damage, E. coli; source: E. coli, overexpressed, purified (essentially as Bougdour et al., 2008)"}, "B4": {"name": "RssBN, N-terminal domain of RssB (residues 1-129), untagged, purified (domain or fragment, E. coli, UniProt P0AEV1 1-129, looked up)", "chain": "MTQPLVGKQILIVEDEQVFRSLLDSWFSSLGATTVLAADGVDALELLGGFTPDLMICDIAMPRMNGLKLLEHIRNRGDQTPVLVISATENMADIAKALRLGVEDVLLKPVKDLNRLREMVFACLYPSMF", "notes": "RssB, E. coli, N-terminal domain, residues 1-129; also called N-domain of RssB; receiver domain; source: E. coli, Ub-fusion system, purified (IMAC, SEC)"}},
  "key": {"[1]": {"biological_target": "T1, RssBC, C-terminal domain of RssB (residues 131-337), untagged, purified (E. coli, UniProt P0AEV1 131-337)", "T1 construct": "RssB, E. coli, C-terminal effector domain, residues 131-337; also called C-terminal effector domain of RssB; source: E. coli, Ub-fusion system, purified (IMAC, SEC)", "T1 sequence (looked up)": "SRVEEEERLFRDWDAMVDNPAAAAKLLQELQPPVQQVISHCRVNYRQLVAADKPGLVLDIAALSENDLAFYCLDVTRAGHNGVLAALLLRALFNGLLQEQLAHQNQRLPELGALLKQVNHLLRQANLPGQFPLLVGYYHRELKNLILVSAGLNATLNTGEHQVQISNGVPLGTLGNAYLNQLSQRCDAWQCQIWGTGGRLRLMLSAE", "experiment": "pull-down; purified IraP immobilised on Ni-NTA agarose beads via a C-terminal His10-tag; purified RssB, RssBN or RssBC added; washed, eluted with imidazole; immunoblotting", "settings": "both partners purified"}, "[2]": {"biological_target": "the molecule itself", "experiment": "SEC; preparative grade SEC in the purification of untagged RssB, separating monomeric and dimeric RssB"}, "[3]": {"biological_target": "B2", "experiment": "pull-down; purified His10-tagged IraD immobilised on Ni-NTA agarose beads; purified untagged RssB, RssBN or RssBC added; washed, eluted with imidazole; SDS-PAGE, CBB", "settings": "both partners purified"}, "[4]": {"biological_target": "the molecule itself", "experiment": "SEC; Superdex 75; 5 nmol of IraD, RssBN or the IraD-RssBN complex; chilled GF buffer (20 mM Tris-HCl pH 7.5, 10 mM MgCl2, 0.1 mM EDTA, 1 mM DTT, 140 mM NaCl, 5% glycerol, 0.005% Triton X-100); fractions on SDS-PAGE, CBB"}},
  "data": [
    {"binder": "B1", "values": [
      {"measurement": "binding result", "setting": "[1]", "result": "binds"}
    ]},
    {"binder": "B2", "values": [
      {"measurement": "stoichiometry N", "setting": "[2]", "result": 2}
    ]},
    {"binder": "B3", "values": [
      {"measurement": "binding result", "setting": "[3]", "result": "binds"},
      {"measurement": "stoichiometry N", "setting": "[4]", "result": 2}
    ]},
    {"binder": "B4", "values": [
      {"measurement": "stoichiometry N", "setting": "[4]", "result": 2}
    ]}
  ]
}
